Reference: PMC7360964, “Auto‐inhibition of Mif2/CENP‐C ensures centromere‐dependent kinetochore assembly in budding yeast” (The EMBO Journal, 2020)
Where no end group is shown, it is not given here.

T1: Mtw1-Nnf1 heterodimer (MN) (S. cerevisiae, UniProt P39731 1-289; P47149 1-201)
T1 construct: Mtw1, S. cerevisiae; Nnf1, S. cerevisiae; also called Mtw1/Nnf1 dimer; MN complex; source: E. coli BL21 (DE3), purified (HisTrap, Q flow-through, SEC); not shown: His6, N-terminal, kept
T1 sequence (looked up) 1: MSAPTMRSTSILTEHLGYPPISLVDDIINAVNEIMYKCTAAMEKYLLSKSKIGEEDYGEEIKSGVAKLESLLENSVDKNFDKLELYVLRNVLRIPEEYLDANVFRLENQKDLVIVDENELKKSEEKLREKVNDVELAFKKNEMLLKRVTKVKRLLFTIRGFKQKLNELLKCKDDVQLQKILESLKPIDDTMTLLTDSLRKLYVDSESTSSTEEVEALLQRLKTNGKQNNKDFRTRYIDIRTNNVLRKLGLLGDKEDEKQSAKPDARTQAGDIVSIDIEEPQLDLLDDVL
T1 sequence (looked up) 2: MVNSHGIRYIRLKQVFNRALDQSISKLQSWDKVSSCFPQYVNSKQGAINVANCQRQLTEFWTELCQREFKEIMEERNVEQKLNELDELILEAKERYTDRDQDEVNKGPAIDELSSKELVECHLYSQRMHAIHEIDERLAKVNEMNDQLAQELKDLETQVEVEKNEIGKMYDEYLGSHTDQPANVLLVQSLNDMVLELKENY


Assays:
[1] = target: T1, Mtw1-Nnf1 heterodimer (MN); test: ITC; peptide (Mif2 1-41 250 μM or Ame1 1-20 800 μM) titrated into 25 μM MN; 30 mM Hepes pH 7.5, 150 mM NaCl, 1 mM TCEP, 25°C; one set of binding sites; average of 3 or 4 experiments; conditions: both partners purified
[2] = target: T1, Mtw1-Nnf1 heterodimer (MN); test: fluorescence polarisation; 0.1 μM FITC-Mif2 1-41, MN added from 0 to 4 μM; 30 mM Hepes pH 7.5, 150 mM NaCl, 1 mM TCEP, 23°C; one set of binding sites; triplicates; conditions: both partners purified
[3] = test system: hemizygous Mtw1 deletion strain; test: Tetrad analysis, Mtw1 alleles; format: cell-based, budding yeast; conditions: Mtw1 rescue construct only source of Mtw1
Procedure: Figure 3 Analysis of Mtw1 interface mutants in vivo • Structure of the Mtw1c head I bound to Mif2 and list of key residues constituting interface I (Mif2 binding) and interface II (putative Ame1 binding) from Dimitrova et al. • Analysis of these Mtw1 mutants in vivo using the anchor‐away technique. Mtw1‐FRB strains containing RPL13‐FKBP12 for cytoplasmic anchoring and additionally harboring the indicated rescue alleles were plated in serial dilution on YEPD or YEPD + rapamycin plates incubated at 30°C. • Tetrad analysis of Mtw1‐wt or mutants. Surviving spores in which the Mtw1‐wt or mutant rescue construct was the only source of Mtw1 are indicated in pink circles. • Western blotting confirming the expression of Mtw1‐6x‐Flag wt or mutant proteins in the Mtw1‐FRB strain background. • Analytical SEC runs and accompanying SDS–PAGE of Mtw1c‐wt or Mtw1c‐5A mutant (blue), AO (gray), or a stoichiometric combination of both complexes (green) at 10 μM each. Boxes indicate corresponding fractions in left and right panels.
The inability of these alleles to support growth was not due to lack of protein expression, although the steady‐state level was reduced compared to the wild‐type as shown by Western blotting (Fig 3D). We additionally confirmed that Mtw1 interface I mutants indeed confer a lethal phenotype by introducing the respective mutations into a hemizygous Mtw1 deletion strain and performing tetrad dissection. […] The more severe phenotype of Mtw1‐3A in the FRB system compared to tetrad dissection might be due to the additional mutations in the complex genetic background of the anchor‐away strain, which might make it more sensitive to the Mtw1‐3A mutation.
Serial fourfold dilutions of overnight cultures were prepared on 96‐well plates in minimal medium starting from OD600 of 0.6. The dilutions were spotted on YPD medium with and without rapamycin or on YP‐glucose and YP‐galactose and grown at 30°C for 3 days. […]

[4] = test system: Ame1‐Okp1 (AO) complex; test: Analytical SEC of Mtw1c wild-type and mutants with Ame1-Okp1 (AO); format: binding, budding yeast; conditions: 10 μM each
Procedure: Figure 3 Analysis of Mtw1 interface mutants in vivo • Structure of the Mtw1c head I bound to Mif2 and list of key residues constituting interface I (Mif2 binding) and interface II (putative Ame1 binding) from Dimitrova et al. • Analysis of these Mtw1 mutants in vivo using the anchor‐away technique. Mtw1‐FRB strains containing RPL13‐FKBP12 for cytoplasmic anchoring and additionally harboring the indicated rescue alleles were plated in serial dilution on YEPD or YEPD + rapamycin plates incubated at 30°C. • Tetrad analysis of Mtw1‐wt or mutants. […]
The GST pulldown experiment was performed using BSA‐preblocked GSH Sepharose beads. […] Beads were washed twice in pulldown buffer, before Laemmli sample buffer was added to the beads (GST pulldown) or proteins were eluted in pulldown buffer supplemented with 1 mg/ml Flag peptide before addition of Laemmli sample buffer (Flag pulldown) and samples were analyzed on a Coomassie Brilliant Blue‐stained SDS–PAGE gel or Western blotting. […] Elution of proteins was monitored at 280 nm. 100 μl fractions were collected and analyzed by SDS–PAGE and Coomassie Brilliant Blue staining or Western blotting. […] After several washes with lysis buffer, proteins were eluted with 0.2 mg/ml 3xFlag peptide in lysis buffer, and fractions were analyzed by Western blotting. […]

Row | Molecule | Kd [1] [nM] | viability of haploid spores [3] | interaction of Mtw1c with AO, SEC [4] | also measured
1 | MDYMKLGLKSRKTGIDVKQDIPKDEYSMENIDDFFKDDETS (peptide, UniProt P35201 1-41, looked up, Mif2, S. cerevisiae, residues 1-41, unlabeled, used in ITC; also called Mif2-N) [Mif2^1-41 peptide] | 1170 |  |  | 
2 | MDYMKLGLKSRKTGIDVKQDIPKDEYSMENIDDFFKDDETS (peptide, UniProt P35201 1-41, looked up, also: FITC label (position not given here), Mif2, S. cerevisiae, residues 1-41; also called Mif2-N (FITC-labeled N-terminal Mif2 peptide)) [FITC-Mif2^1-41] |  |  |  | Kd [2]: 380 nM
3 | MDRDTKLAFRLRGSHSRRTD (peptide, UniProt P38313 1-20, looked up, Ame1 (CENP-U homolog), S. cerevisiae, residues 1-20; also called Ame1^1-20; Ame1_1-20) [Ame1-N peptide (aa 1-20)] | 12500 |  |  | 
4 | Mtw1‐5A: Mtw1 D25A D81A K82A E84A Y86A, interface I (protein, UniProt P39731 1-289, looked up, variant D25A D81A K82A E84A Y86A) Kinetochore-associated …: MSAPTMRSTSILTEHLGYPPISLVADIINAVNEIMYKCTAAMEKYLLSKSKIGEEDYGEEIKSGVAKLESLLENSVDKNFAALALAVLRNVLRIPEEYLDANVFRLENQKDLVIVDENELKKSEEKLREKVNDVELAFKKNEMLLKRVTKVKRLLFTIRGFKQKLNELLKCKDDVQLQKILESLKPIDDTMTLLTDSLRKLYVDSESTSSTEEVEALLQRLKTNGKQNNKDFRTRYIDIRTNNVLRKLGLLGDKEDEKQSAKPDARTQAGDIVSIDIEEPQLDLLDDVL |  | inviable | no longer able to interact efficiently with AO | 
5 | Mtw1‐3A: Mtw1 E73A N32A Y36A, interface II (protein, UniProt P39731 1-289, looked up, variant E73A N32A Y36A) Kinetochore-associated …: MSAPTMRSTSILTEHLGYPPISLVDDIINAVAEIMAKCTAAMEKYLLSKSKIGEEDYGEEIKSGVAKLESLLANSVDKNFDKLELYVLRNVLRIPEEYLDANVFRLENQKDLVIVDENELKKSEEKLREKVNDVELAFKKNEMLLKRVTKVKRLLFTIRGFKQKLNELLKCKDDVQLQKILESLKPIDDTMTLLTDSLRKLYVDSESTSSTEEVEALLQRLKTNGKQNNKDFRTRYIDIRTNNVLRKLGLLGDKEDEKQSAKPDARTQAGDIVSIDIEEPQLDLLDDVL |  | viable, albeit slow‐growing | abolish AOc binding | 
6 | Mtw1-8A: Mtw1 D25A N32A Y36A E73A D81A K82A E84A Y86A, interface I+II (protein, UniProt P39731 1-289, looked up, variant D25A N32A Y36A E73A D81A K82A E84A Y86A) Kinetochore-associated …: MSAPTMRSTSILTEHLGYPPISLVADIINAVAEIMAKCTAAMEKYLLSKSKIGEEDYGEEIKSGVAKLESLLANSVDKNFAALALAVLRNVLRIPEEYLDANVFRLENQKDLVIVDENELKKSEEKLREKVNDVELAFKKNEMLLKRVTKVKRLLFTIRGFKQKLNELLKCKDDVQLQKILESLKPIDDTMTLLTDSLRKLYVDSESTSSTEEVEALLQRLKTNGKQNNKDFRTRYIDIRTNNVLRKLGLLGDKEDEKQSAKPDARTQAGDIVSIDIEEPQLDLLDDVL |  | inviable |  | 
